Results: patent publication US20110178017A1 (PHASEBIO PHARMACEUTICALS, published 2011)

T1: human Vasoactive Intestinal Peptide Receptor 1 (VPAC1) (human, UniProt P32241 31-457)
T1 sequence (looked up): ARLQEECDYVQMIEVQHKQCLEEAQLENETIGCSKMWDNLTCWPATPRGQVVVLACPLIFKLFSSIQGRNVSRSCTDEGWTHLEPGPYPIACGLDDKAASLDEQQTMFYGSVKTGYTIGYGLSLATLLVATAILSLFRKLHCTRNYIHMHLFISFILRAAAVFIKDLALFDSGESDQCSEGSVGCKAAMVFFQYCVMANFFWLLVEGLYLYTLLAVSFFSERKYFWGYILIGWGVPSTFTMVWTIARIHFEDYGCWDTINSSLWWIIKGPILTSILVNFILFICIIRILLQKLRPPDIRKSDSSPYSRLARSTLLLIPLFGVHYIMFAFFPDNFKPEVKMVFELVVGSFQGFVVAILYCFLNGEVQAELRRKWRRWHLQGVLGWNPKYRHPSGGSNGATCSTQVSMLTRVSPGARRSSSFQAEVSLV

B1: PB1046 (M-VIP-ELP1-120 fusion protein) (other)
chain: MHSDAVFTDNYTRLRKQMAVKKYLNSILNVPGVGVPGVGVPGGGVPGAGVPGVGVPGVGVPGVGVPGGGVPGAGVPGGGVPGVGVPGVGVPGGGVPGAGVPGVGVPGVGVPGVGVPGGGVPGAGVPGGGVPGVGVPGVGVPGGGVPGAGVPGVGVPGVGVPGVGVPGGGVPGAGVPGGGVPGVGVPGVGVPGGGVPGAGVPGVGVPGVGVPGVGVPGGGVPGAGVPGGGVPGVGVPGVGVPGGGVPGAGVPGVGVPGVGVPGVGVPGGGVPGAGVPGGGVPGVGVPGVGVPGGGVPGAGVPGVGVPGVGVPGVGVPGGGVPGAGVPGGGVPGVGVPGVGVPGGGVPGAGVPGVGVPGVGVPGVGVPGGGVPGAGVPGGGVPGVGVPGVGVPGGGVPGAGVPGVGVPGVGVPGVGVPGGGVPGAGVPGGGVPGVGVPGVGVPGGGVPGAGVPGVGVPGVGVPGVGVPGGGVPGAGVPGGGVPGVGVPGVGVPGGGVPGAGVPGVGVPGVGVPGVGVPGGGVPGAGVPGGGVPGVGVPGVGVPGGGVPGAGVPGVGVPGVGVPGVGVPGGGVPGAGVPGGGVPGVGVPGVGVPGGGVPGAGVPGVGVPGVGVPGVGVPGGGVPGAGVPGGGVPGWP

Assays:
Experiment in all cases: cell-based or functional assay
[1] = target: human Vasoactive Intestinal Peptide Receptor 2 (VPAC2) (human) (UniProt P41587)
Chain of human Vasoactive Intestinal Peptide Receptor 2 (VPAC2) (human) (P41587 24-438): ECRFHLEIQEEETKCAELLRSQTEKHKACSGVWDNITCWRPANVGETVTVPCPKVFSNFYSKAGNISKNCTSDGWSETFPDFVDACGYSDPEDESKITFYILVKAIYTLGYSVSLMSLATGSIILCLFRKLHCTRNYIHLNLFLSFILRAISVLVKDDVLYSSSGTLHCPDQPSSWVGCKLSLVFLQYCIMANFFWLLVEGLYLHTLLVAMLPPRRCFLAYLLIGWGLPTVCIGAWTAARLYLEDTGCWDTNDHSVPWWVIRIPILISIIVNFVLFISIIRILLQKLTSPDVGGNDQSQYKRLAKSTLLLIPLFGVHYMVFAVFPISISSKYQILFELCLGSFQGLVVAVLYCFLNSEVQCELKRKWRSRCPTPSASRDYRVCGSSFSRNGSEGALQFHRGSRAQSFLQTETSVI

[2] = target: human Vasoactive Intestinal Peptide Receptor 1 (VPAC1) (human) (UniProt P32241)
[3] = target: T1, human Vasoactive Intestinal Peptide …

| Molecule | activity (cAMP) in CHO cells expressing VPAC2, relative to native VIP (fold less active than native VIP) [1] | activity (cAMP) in CHO cells expressing VPAC1, relative to native VIP (fold less active than native VIP) [2] | activity (cAMP) in CHO cells expressing VPAC1, relative to native VIP [3] |
| --- | --- | --- | --- |
| PB1120 (VIP-ELP1-120 fusion peptide) | 1.5 | 1.4 |  |
| B1 |  |  | ~11 fold less active than native VIP |
